The text below walks through data of patent EP0912608B1.

The assay deals with Fibronectin from human plasma (human) (UniProt P02751). The experiment in a line: cell-based or functional assay.
Chain of UniProt P02751 (P02751 other isoform, or with tags, fused parts or gaps limits assumed): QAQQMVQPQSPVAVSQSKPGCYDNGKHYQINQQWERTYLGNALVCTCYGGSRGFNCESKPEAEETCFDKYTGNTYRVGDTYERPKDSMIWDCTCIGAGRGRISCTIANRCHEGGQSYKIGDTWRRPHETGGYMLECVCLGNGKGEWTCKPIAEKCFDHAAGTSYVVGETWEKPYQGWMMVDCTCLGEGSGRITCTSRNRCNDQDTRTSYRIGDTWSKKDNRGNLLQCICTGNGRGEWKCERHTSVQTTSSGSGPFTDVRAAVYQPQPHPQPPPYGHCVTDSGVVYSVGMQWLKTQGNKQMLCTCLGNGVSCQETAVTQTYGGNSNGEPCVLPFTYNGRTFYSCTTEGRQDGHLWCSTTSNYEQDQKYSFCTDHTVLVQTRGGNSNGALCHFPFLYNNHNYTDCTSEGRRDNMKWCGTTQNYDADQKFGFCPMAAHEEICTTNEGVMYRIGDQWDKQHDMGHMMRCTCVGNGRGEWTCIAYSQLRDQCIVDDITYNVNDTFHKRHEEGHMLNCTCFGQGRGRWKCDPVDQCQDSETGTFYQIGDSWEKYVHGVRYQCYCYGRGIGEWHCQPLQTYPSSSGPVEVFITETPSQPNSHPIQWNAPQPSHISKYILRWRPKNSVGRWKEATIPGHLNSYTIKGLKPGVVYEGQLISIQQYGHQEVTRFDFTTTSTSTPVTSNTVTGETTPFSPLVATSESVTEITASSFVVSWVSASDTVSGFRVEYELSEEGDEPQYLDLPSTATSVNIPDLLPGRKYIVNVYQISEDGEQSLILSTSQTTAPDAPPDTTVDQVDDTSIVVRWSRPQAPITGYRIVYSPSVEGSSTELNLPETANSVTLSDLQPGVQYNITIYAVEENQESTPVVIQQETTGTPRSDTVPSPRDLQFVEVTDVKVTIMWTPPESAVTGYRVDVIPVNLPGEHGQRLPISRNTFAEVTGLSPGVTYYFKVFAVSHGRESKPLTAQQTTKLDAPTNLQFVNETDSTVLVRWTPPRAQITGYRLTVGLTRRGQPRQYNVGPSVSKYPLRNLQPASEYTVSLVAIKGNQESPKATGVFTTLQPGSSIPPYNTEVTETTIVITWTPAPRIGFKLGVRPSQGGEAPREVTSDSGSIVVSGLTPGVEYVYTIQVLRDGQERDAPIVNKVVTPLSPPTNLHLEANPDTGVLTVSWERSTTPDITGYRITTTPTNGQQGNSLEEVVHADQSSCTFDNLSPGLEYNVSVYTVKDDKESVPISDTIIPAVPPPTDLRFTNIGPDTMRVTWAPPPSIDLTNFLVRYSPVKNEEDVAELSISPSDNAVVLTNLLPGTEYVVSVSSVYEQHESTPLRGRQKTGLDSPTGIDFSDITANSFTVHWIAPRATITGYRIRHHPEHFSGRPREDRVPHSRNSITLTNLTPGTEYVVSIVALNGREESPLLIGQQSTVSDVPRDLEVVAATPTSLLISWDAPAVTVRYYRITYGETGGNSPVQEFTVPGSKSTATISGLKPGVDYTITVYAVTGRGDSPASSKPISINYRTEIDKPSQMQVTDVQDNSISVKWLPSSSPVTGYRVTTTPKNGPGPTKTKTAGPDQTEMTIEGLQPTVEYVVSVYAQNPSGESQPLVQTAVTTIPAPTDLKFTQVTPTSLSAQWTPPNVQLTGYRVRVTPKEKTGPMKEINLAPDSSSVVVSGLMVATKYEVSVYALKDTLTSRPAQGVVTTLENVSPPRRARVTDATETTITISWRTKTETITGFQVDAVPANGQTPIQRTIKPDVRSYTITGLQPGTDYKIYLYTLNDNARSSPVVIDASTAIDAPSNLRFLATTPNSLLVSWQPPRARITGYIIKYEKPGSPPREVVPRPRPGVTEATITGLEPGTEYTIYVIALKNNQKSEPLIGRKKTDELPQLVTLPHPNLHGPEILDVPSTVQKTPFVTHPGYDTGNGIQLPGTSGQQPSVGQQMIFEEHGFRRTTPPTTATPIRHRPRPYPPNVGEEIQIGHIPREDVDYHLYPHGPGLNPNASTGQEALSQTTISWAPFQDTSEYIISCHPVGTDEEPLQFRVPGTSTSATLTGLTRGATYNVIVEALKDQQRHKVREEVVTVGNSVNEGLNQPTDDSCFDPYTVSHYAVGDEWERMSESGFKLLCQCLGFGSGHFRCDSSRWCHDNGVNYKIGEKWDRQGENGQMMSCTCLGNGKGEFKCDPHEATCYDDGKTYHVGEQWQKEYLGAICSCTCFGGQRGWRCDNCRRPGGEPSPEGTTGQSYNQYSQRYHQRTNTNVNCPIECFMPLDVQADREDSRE

In turn, “yeast enolase (Sigma) (from UniProt P00924 2-437) (enzyme)” registered an inhibition of pneumococcal adherence to fibronectin of 98%.
